Data taken from patent US20230340087A1 (published 2023).

B1: ABAB binding agent (AH3/5D/AA6/E3), tetra-specific, tetrameric VHH binding agent (designed binder)
chain: QVQLVETGGGLVQPGGSLRLSCAASGFTLDYSSIGWFRQAPGKEREGVSCISSSGDSTKYADSVKGRFTTSRDNAKNTVYLQMNSLKPDDTAVYYCAAFRATMCGVFPLSPYGKDDWGKGTLVTVSSGGGGSGGGGSGGGGSQVQLVESGGGLVQPGGSLRLSCEASGFTLDYYGIGWFRQPPGKEREAVSYISASARTILYADSVKGRFTISRDNAKNAVYLQMNSLKREDTAVYYCARRRFSASSVNRWLADDYDVWGRGTQVAVSSGGGSGGGSGGGSGGGSQLQLVETGGGLVQPGGSLRLSCAASGFTFSDYVMTWVRQAPGKGPEWIATINTDGSTMRDDSTKGRFTISRDNAKNTLYLQMTSLKPEDTALYYCARGRVISASAIRGAVRGPGTQVTVSSGGGGSGGGGSGGGGSQVQLVESGGGLVQTGGSLRLSCASSGSIAGFETVTWSRQAPGKSLQWVASMTKTNNEIYSDSVKGRFIISRDNAKNTVYLQMNSLKPEDTGVYFCKGPELRGQGIQVTVSS
notes: also called r-ABAB; recombinant ABAB
B2: AA6 VHH peptide monomer (VHH)
VHH: QLQLVETGGGLVQPGGSLRLSCAASGFTFSDYVMTWVRQAPGKGPEWIATINTDGSTMRDDSTKGRFTISRDNAKNTLYLQMTSLKPEDTALYYCARGRVISASAIRGAVRGPGTQVTVSS

Target: T1, Clostridium difficile toxin A (TcdA) (Clostridium difficile, UniProt P16154 1-2710)
T1 construct: also called TxA; rTcdA
T1 sequence (P16154 whole entry): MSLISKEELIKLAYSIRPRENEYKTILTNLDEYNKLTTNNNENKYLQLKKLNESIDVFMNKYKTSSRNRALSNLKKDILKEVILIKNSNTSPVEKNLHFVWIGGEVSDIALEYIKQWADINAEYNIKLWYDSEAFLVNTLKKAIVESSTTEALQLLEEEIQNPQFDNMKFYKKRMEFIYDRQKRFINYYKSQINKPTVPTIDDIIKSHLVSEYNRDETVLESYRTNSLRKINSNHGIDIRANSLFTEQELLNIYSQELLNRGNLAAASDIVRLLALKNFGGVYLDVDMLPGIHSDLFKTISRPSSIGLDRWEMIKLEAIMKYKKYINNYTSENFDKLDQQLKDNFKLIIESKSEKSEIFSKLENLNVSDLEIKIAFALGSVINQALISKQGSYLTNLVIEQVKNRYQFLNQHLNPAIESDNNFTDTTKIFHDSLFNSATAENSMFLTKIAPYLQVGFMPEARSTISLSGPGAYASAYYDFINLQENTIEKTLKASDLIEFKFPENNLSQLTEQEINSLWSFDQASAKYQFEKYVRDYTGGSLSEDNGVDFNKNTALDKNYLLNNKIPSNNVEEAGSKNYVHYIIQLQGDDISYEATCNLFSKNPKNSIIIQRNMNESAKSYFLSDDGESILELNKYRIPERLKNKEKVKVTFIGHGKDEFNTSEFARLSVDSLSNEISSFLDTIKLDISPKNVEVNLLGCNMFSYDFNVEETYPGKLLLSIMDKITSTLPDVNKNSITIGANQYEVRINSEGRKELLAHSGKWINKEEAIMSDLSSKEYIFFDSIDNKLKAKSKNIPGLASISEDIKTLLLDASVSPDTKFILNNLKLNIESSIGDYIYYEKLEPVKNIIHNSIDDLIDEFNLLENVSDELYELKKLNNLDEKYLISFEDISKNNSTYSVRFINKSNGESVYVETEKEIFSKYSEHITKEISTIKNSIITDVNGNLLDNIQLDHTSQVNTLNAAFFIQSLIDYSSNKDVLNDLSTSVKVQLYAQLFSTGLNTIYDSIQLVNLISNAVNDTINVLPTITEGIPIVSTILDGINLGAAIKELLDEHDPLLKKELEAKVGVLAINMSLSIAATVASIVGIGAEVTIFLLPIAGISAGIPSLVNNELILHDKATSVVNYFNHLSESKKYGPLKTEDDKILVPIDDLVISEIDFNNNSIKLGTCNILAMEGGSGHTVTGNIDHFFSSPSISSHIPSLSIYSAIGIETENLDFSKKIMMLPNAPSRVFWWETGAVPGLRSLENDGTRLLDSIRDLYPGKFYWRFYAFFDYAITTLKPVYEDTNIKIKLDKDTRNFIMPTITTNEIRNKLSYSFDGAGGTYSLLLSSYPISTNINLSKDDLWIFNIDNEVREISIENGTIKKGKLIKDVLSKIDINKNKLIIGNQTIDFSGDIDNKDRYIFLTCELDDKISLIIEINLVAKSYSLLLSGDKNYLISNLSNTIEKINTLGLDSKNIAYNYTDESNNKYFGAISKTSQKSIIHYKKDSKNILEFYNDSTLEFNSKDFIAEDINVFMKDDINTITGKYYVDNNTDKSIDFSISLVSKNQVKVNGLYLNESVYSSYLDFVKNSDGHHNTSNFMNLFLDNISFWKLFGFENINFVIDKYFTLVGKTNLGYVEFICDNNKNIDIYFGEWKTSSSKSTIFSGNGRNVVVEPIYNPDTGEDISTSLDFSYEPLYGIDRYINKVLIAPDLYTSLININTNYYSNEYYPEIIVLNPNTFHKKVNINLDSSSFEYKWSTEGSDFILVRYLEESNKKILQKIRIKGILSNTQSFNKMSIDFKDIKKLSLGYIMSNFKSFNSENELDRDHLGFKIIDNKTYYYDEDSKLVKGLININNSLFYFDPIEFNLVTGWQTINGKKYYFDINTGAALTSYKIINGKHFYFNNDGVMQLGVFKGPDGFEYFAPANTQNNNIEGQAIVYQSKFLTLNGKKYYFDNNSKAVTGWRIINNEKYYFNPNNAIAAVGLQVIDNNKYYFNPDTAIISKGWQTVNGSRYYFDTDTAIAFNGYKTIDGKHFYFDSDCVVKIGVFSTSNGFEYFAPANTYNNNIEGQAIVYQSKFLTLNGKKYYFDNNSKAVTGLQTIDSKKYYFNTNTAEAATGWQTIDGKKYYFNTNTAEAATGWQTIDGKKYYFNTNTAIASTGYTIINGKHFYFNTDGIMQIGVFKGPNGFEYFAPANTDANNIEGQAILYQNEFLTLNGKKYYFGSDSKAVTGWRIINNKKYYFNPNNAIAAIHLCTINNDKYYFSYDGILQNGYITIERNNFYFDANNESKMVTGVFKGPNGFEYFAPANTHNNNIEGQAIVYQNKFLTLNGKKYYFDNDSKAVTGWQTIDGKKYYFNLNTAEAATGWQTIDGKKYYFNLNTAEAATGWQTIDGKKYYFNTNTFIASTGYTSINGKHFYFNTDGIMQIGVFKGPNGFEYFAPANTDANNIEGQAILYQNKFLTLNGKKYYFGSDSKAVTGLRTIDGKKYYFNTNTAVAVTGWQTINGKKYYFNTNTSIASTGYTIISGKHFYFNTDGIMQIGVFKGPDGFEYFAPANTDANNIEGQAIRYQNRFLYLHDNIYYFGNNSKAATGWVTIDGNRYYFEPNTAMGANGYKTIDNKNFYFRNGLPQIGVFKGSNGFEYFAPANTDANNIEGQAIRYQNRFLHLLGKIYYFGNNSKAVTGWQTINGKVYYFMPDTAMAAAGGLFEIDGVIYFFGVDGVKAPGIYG
Test: binding kinetics, method not stated

Binder | Kd [nM] | koff [s⁻¹] | kon [M⁻¹ s⁻¹]
B1 | 0.002 | 1.21e-06 | 696000
B2 | 19.7 | 0.000692 | 35200
